Results: article PMC11829585

Molecular target: T1, HuNoV GII.2 VLP (Human norovirus GII.2, UniProt A0A291L9K1 1-542)
T1 sequence: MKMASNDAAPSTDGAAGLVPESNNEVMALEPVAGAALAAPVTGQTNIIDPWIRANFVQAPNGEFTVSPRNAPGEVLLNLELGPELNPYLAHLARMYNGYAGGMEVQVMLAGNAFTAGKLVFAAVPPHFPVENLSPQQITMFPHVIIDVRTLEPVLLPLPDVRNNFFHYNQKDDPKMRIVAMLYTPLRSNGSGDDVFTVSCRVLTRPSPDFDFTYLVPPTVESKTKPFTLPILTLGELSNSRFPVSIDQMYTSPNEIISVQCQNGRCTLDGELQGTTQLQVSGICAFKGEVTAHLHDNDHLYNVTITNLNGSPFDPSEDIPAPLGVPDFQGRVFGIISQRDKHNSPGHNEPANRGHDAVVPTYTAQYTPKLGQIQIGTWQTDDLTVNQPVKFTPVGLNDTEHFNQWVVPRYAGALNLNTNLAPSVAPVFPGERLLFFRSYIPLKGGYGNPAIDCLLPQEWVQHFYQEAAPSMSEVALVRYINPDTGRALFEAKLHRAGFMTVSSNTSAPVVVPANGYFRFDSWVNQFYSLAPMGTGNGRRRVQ
Test: dot blot

AACACGACAACCCTGTGACCAACGAACCACACCAAAGTGGGC (ssDNA) [AP4-2]: binds.

GGAACACGACCCGTCTGTGGCCATCACAGTACAGCATCGTCGTG (ssDNA) [AP17-4]: binds.
